Bridge positions count the residues as written; N and C are the ends. Square brackets hold non-standard residues; d marks the D form. Ends that are not written are not given here. Pro(cis-4-CF3) = O=C(O)[C@@H]1C[C@H](C(F)(F)F)CN1; Oic = O=C(O)[C@@H]1C[C@@H]2CCCC[C@@H]2N1; NMeI = CC[C@H](C)[C@H](NC)C(=O)O; tBuAla = CC(C)(C)C[C@H](N)C(=O)O; PEG4 = NCCOCCOCCOCCOCCC(=O)O; Pen = CC(C)(S)[C@H](N)C(=O)O; NMeC = CN[C@@H](CS)C(=O)O; NMeA = CN[C@@H](C)C(=O)O; Orn = NCCC[C@H](N)C(=O)O; Aib = CC(C)(N)C(=O)O; Sar = CNCC(=O)O
T1: recombinant human MASP1 active protease (amino acids 297-699, C-terminal His Tag) (human, UniProt P48740 297-699)
T1 sequence: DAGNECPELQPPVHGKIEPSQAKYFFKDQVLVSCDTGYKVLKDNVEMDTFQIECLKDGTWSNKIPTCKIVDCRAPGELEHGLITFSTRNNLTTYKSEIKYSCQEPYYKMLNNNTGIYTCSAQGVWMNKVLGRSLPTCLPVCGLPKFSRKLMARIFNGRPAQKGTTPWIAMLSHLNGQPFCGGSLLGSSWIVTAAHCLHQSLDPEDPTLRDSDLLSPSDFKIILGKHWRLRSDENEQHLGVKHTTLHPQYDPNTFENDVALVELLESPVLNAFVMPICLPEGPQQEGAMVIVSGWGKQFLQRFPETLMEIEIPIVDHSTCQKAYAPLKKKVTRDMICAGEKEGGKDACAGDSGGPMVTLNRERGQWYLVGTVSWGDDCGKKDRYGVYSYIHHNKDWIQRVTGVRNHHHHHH


What was measured:
[1] = target: T1, recombinant human MASP1 active protease …; test: cell-based or functional assay
[2] = target: recombinant human MASP2 active protease (amino acids 297-686, C-terminal His Tag) (human, UniProt O00187 297-686); test: cell-based or functional assay
recombinant human MASP2 active protease (amino acids 297-686, C-terminal His Tag), sequence (O00187 other isoform, or with tags, fused parts or gaps limits assumed): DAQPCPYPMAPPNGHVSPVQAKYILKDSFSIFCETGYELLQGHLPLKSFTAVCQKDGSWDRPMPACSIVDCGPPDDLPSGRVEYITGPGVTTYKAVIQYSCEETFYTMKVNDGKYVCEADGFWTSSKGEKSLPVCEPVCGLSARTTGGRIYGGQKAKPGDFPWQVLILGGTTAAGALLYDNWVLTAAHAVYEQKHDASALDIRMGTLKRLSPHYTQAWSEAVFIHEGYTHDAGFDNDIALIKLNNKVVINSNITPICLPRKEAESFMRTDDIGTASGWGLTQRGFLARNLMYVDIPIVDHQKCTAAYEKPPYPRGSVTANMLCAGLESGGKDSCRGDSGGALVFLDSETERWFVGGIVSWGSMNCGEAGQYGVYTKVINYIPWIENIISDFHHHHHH

Binder | human MASP1 IC50 [1] [nM] | human MASP2 IC50 [2] [nM]
[NMeA]ICSRSLP[Oic]I[Pen]IPE-NH2 (disulfide 3-11; N-terminus assumed; SMILES CC[C@H](C)[C@H](NC(=O)[C@H](C)NC)C(=O)N[C@H]1CSSC(C)(C)[C@@H](C(=O)N[C@H](C(=O)N2CCC[C@H]2C(=O)N[C@@H](CCC(=O)O)C(N)=O)[C@@H](C)CC)NC(=O)[C@H]([C@@H](C)CC)NC(=O)[C@@H]2C[C@@H]3CCCC[C@@H]3N2C(=O)[C@@H]2CCCN2C(=O)[C@H](CC(C)C)NC(=O)[C@H](CO)NC(=O)[C@H](CCCNC(=N)N)NC(=O)[C@H](CO)NC1=O) [((N-Me)A)-IC+SRSLP-(Oic)-I-(Pen)+IPE-NH2] | 3.3 | 200
[Sar]ICSRSLP[Oic]I[Pen]IP[PEG4]-NH2 (disulfide 3-11; N-terminus assumed; SMILES CC[C@H](C)[C@H](NC(=O)CNC)C(=O)N[C@H]1CSSC(C)(C)[C@@H](C(=O)N[C@H](C(=O)N2CCC[C@H]2C(=O)NCCOCCOCCOCCOCCC(N)=O)[C@@H](C)CC)NC(=O)[C@H]([C@@H](C)CC)NC(=O)[C@@H]2C[C@@H]3CCCC[C@@H]3N2C(=O)[C@@H]2CCCN2C(=O)[C@H](CC(C)C)NC(=O)[C@H](CO)NC(=O)[C@H](CCCNC(=N)N)NC(=O)[C@H](CO)NC1=O) [((N-Me)G)-IC+SRSLP-(Oic)-I-(Pen)+IP-(PEG3(16 atoms))-NH2] | 3.2 | 79
[Aib]ICSRS[tBuAla]PPI[Pen]IPD-NH2 (disulfide 3-11; N-terminus assumed; SMILES CC[C@H](C)[C@@H]1NC(=O)[C@@H]2CCCN2C(=O)[C@@H]2CCCN2C(=O)[C@H](CC(C)(C)C)NC(=O)[C@H](CO)NC(=O)[C@H](CCCNC(=N)N)NC(=O)[C@H](CO)NC(=O)[C@@H](NC(=O)[C@@H](NC(=O)C(C)(C)N)[C@@H](C)CC)CSSC(C)(C)[C@@H](C(=O)N[C@H](C(=O)N2CCC[C@H]2C(=O)N[C@@H](CC(=O)O)C(N)=O)[C@@H](C)CC)NC1=O) [(Aib)-IC+SRS-((tBu)A)-PPI-(Pen)+IPD-NH2] | 1.19 | 36
HICSRS[tBuAla]PPI[Pen]IPD-NH2 (disulfide 3-11; N-terminus assumed; SMILES CC[C@H](C)[C@H](NC(=O)[C@@H](N)Cc1c[nH]cn1)C(=O)N[C@H]1CSSC(C)(C)[C@@H](C(=O)N[C@H](C(=O)N2CCC[C@H]2C(=O)N[C@@H](CC(=O)O)C(N)=O)[C@@H](C)CC)NC(=O)[C@H]([C@@H](C)CC)NC(=O)[C@@H]2CCCN2C(=O)[C@@H]2CCCN2C(=O)[C@H](CC(C)(C)C)NC(=O)[C@H](CO)NC(=O)[C@H](CCCNC(=N)N)NC(=O)[C@H](CO)NC1=O) [HIC+SRS-((tBu)A)-PPI-(Pen)+IPD-NH2] | 3.2 | 75
A[NMeI]CSRS[tBuAla]PPI[NMeC]IPD-NH2 (disulfide 3-11; N-terminus assumed; SMILES CC[C@H](C)[C@@H]1NC(=O)[C@@H]2CCCN2C(=O)[C@@H]2CCCN2C(=O)[C@H](CC(C)(C)C)NC(=O)[C@H](CO)NC(=O)[C@H](CCCNC(=N)N)NC(=O)[C@H](CO)NC(=O)[C@@H](NC(=O)[C@H]([C@@H](C)CC)N(C)C(=O)[C@H](C)N)CSSC[C@@H](C(=O)N[C@H](C(=O)N2CCC[C@H]2C(=O)N[C@@H](CC(=O)O)C(N)=O)[C@@H](C)CC)N(C)C1=O) [A-((N-Me)I)-C+SRS-((tBu)A)-PPI-((N-Me)C)+IPD-NH2] | 1.2 | 620
AICSRSLP[Oic]I[Pen]IPE-NH2 (disulfide 3-11; N-terminus assumed; SMILES CC[C@H](C)[C@H](NC(=O)[C@H](C)N)C(=O)N[C@H]1CSSC(C)(C)[C@@H](C(=O)N[C@H](C(=O)N2CCC[C@H]2C(=O)N[C@@H](CCC(=O)O)C(N)=O)[C@@H](C)CC)NC(=O)[C@H]([C@@H](C)CC)NC(=O)[C@@H]2C[C@@H]3CCCC[C@@H]3N2C(=O)[C@@H]2CCCN2C(=O)[C@H](CC(C)C)NC(=O)[C@H](CO)NC(=O)[C@H](CCCNC(=N)N)NC(=O)[C@H](CO)NC1=O) [AIC+SRSLP-(Oic)-I-(Pen)+IPE-NH2] | 3.1 | 160
[2‑(Piperidin)acetyl]ICSRS[tBuAla]PPI[Pen]IPD-NH2 (disulfide 3-11) [(2-(Piperidin)acetyl)-IC+SRS-((tBu)A)-PPI-(Pen)+IPD-NH2] | 3.3 | 71
AICSRS[tBuAla]P[Pro(cis-4-CF3)]I[NMeC]IPD-NH2 (disulfide 3-11; N-terminus assumed; SMILES CC[C@H](C)[C@H](NC(=O)[C@H](C)N)C(=O)N[C@H]1CSSC[C@@H](C(=O)N[C@H](C(=O)N2CCC[C@H]2C(=O)N[C@@H](CC(=O)O)C(N)=O)[C@@H](C)CC)N(C)C(=O)[C@H]([C@@H](C)CC)NC(=O)[C@@H]2C[C@H](C(F)(F)F)CN2C(=O)[C@@H]2CCCN2C(=O)[C@H](CC(C)(C)C)NC(=O)[C@H](CO)NC(=O)[C@H](CCCNC(=N)N)NC(=O)[C@H](CO)NC1=O) [AIC+SRS-((tBu)A)-P-((4-CF3)P)-I-((N-Me)C)+IPD-NH2] | 3.2 | 1600
AICSRSLP[Oic]I[Pen]IPQ-OH (disulfide 3-11; N-terminus assumed; SMILES CC[C@H](C)[C@H](NC(=O)[C@H](C)N)C(=O)N[C@H]1CSSC(C)(C)[C@@H](C(=O)N[C@H](C(=O)N2CCC[C@H]2C(=O)N[C@@H](CCC(N)=O)C(=O)O)[C@@H](C)CC)NC(=O)[C@H]([C@@H](C)CC)NC(=O)[C@@H]2C[C@@H]3CCCC[C@@H]3N2C(=O)[C@@H]2CCCN2C(=O)[C@H](CC(C)C)NC(=O)[C@H](CO)NC(=O)[C@H](CCCNC(=N)N)NC(=O)[C@H](CO)NC1=O) [AIC+SRSLP-(Oic)-I-(Pen)+IPQ-OH] | 3 | 140
AICSRSLP[Oic]I[Pen]IPQ-NH2 (disulfide 3-11; N-terminus assumed; SMILES CC[C@H](C)[C@H](NC(=O)[C@H](C)N)C(=O)N[C@H]1CSSC(C)(C)[C@@H](C(=O)N[C@H](C(=O)N2CCC[C@H]2C(=O)N[C@@H](CCC(N)=O)C(N)=O)[C@@H](C)CC)NC(=O)[C@H]([C@@H](C)CC)NC(=O)[C@@H]2C[C@@H]3CCCC[C@@H]3N2C(=O)[C@@H]2CCCN2C(=O)[C@H](CC(C)C)NC(=O)[C@H](CO)NC(=O)[C@H](CCCNC(=N)N)NC(=O)[C@H](CO)NC1=O) [AIC+SRSLP-(Oic)-I-(Pen)+IPQ-NH2] | 3.3 | 140
AICSRS[tBuAla]PPICID-OH (disulfide 3-11; N-terminus assumed; SMILES CC[C@H](C)[C@H](NC(=O)[C@H](C)N)C(=O)N[C@H]1CSSC[C@@H](C(=O)N[C@H](C(=O)N[C@@H](CC(=O)O)C(=O)O)[C@@H](C)CC)NC(=O)[C@H]([C@@H](C)CC)NC(=O)[C@@H]2CCCN2C(=O)[C@@H]2CCCN2C(=O)[C@H](CC(C)(C)C)NC(=O)[C@H](CO)NC(=O)[C@H](CCCNC(=N)N)NC(=O)[C@H](CO)NC1=O) [AIC+SRS-((t-Bu)A)-PPIC+ID-OH] | 3.1 | 83
A[NMeI]CSRS[tBuAla]P[Oic]I[NMeC]IPD-NH2 (disulfide 3-11; N-terminus assumed; SMILES CC[C@H](C)[C@@H]1NC(=O)[C@@H]2C[C@@H]3CCCC[C@@H]3N2C(=O)[C@@H]2CCCN2C(=O)[C@H](CC(C)(C)C)NC(=O)[C@H](CO)NC(=O)[C@H](CCCNC(=N)N)NC(=O)[C@H](CO)NC(=O)[C@@H](NC(=O)[C@H]([C@@H](C)CC)N(C)C(=O)[C@H](C)N)CSSC[C@@H](C(=O)N[C@H](C(=O)N2CCC[C@H]2C(=O)N[C@@H](CC(=O)O)C(N)=O)[C@@H](C)CC)N(C)C1=O) [A-((N-Me)I)-C+SRS-((tBu)A)-P-(Oic)-I-((N-Me)C)+IPD-NH2] | 3.1 | 590
[NMeA]ICSRS[tBuAla]PPI[Pen]IP-NH2 (disulfide 3-11; N-terminus assumed; SMILES CC[C@H](C)[C@H](NC(=O)[C@H](C)NC)C(=O)N[C@H]1CSSC(C)(C)[C@@H](C(=O)N[C@H](C(=O)N2CCC[C@H]2C(N)=O)[C@@H](C)CC)NC(=O)[C@H]([C@@H](C)CC)NC(=O)[C@@H]2CCCN2C(=O)[C@@H]2CCCN2C(=O)[C@H](CC(C)(C)C)NC(=O)[C@H](CO)NC(=O)[C@H](CCCNC(=N)N)NC(=O)[C@H](CO)NC1=O) [((N-Me)A)-IC+SRS-((tBu)A)-PPI-(Pen)+IP-NH2] | 3.2 | 24
[Orn]ICSRS[tBuAla]PPI[Pen]IP-NH2 (disulfide 3-11; N-terminus assumed; SMILES CC[C@H](C)[C@H](NC(=O)[C@@H](N)CCCN)C(=O)N[C@H]1CSSC(C)(C)[C@@H](C(=O)N[C@H](C(=O)N2CCC[C@H]2C(N)=O)[C@@H](C)CC)NC(=O)[C@H]([C@@H](C)CC)NC(=O)[C@@H]2CCCN2C(=O)[C@@H]2CCCN2C(=O)[C@H](CC(C)(C)C)NC(=O)[C@H](CO)NC(=O)[C@H](CCCNC(=N)N)NC(=O)[C@H](CO)NC1=O) [(Orn)-IC+SRS-((tBu)A)-PPI-(Pen)+IP-NH2] | 3.2 | 93
